Experiment in all cases: immunostaining of cells or tissue
Assay [1] concerns the target plasma membrane-targeted version of rat VGLUT1 (Rattus norvegicus, UniProt Q62634).
Assay [2] has as its target plasma membrane-targeted version of rat VGLUT2 (Rattus norvegicus, UniProt Q9JI12, point mutant).
Assay [3] addresses plasma membrane-targeted version of rat VGLUT3 (Rattus norvegicus, UniProt Q7TSF2).

plasma membrane-targeted version of rat VGLUT3, sequence (Q7TSF2 whole entry): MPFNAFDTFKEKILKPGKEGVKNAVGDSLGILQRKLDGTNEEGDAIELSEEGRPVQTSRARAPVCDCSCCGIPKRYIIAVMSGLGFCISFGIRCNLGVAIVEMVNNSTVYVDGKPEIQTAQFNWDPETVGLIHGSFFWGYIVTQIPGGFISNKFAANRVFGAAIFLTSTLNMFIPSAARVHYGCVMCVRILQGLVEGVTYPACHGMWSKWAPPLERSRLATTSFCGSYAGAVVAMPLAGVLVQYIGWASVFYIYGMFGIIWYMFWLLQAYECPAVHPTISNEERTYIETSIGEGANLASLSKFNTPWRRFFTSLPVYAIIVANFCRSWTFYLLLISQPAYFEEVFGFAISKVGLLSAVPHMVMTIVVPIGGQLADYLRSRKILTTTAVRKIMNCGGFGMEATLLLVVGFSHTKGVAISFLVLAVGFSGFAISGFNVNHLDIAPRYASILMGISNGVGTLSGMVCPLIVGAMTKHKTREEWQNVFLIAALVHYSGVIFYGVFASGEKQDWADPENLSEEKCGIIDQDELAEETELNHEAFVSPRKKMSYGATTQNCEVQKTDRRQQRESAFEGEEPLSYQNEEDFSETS
plasma membrane-targeted version of rat VGLUT1, sequence (Q62634 whole entry): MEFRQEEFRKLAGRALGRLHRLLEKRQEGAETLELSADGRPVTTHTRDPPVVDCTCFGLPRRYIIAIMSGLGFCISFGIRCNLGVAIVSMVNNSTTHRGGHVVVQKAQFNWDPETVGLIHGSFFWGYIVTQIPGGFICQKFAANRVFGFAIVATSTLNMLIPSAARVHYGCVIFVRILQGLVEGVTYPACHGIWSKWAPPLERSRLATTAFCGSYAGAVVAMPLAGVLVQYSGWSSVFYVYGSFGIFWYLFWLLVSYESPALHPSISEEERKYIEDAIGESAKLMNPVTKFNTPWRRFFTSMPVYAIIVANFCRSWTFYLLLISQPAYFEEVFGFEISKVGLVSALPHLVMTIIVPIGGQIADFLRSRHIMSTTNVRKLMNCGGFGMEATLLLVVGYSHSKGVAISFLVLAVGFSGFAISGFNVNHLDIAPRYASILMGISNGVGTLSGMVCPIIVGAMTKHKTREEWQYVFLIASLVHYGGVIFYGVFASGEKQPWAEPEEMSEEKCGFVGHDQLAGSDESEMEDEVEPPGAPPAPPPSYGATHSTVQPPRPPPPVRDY
plasma membrane-targeted version of rat VGLUT2, sequence (Q9JI12 whole entry, change not shown): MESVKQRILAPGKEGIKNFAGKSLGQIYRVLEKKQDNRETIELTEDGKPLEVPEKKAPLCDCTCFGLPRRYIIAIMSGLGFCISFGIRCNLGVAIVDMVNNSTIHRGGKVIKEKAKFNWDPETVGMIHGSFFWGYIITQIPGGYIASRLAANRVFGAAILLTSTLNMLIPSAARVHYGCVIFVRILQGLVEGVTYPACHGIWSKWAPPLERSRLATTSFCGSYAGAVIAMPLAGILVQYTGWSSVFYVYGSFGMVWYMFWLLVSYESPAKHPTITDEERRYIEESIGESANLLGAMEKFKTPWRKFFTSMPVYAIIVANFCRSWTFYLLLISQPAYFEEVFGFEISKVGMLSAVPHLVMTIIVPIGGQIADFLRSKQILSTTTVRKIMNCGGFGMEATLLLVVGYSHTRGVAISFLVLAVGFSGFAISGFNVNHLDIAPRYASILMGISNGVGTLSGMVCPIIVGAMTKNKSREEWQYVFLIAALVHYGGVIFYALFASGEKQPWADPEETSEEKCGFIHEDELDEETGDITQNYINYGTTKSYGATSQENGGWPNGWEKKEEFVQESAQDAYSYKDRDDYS

B1: monoclonal antibody 9C6 (antibody, V domains shown)
VH: EVMLVESGGGLVKPGGSLKISCAASGFTFSWYAMSWVRQTPEKRLEWVATISSAGSYTYYPDSVKGRFTISRDNAKNTLYLQMSSLRSEDTAMYYCSRVPILGRVDYWGQGTTLTVSS
VL: QIVLTQSPAIMSASPGEKVTMTCSASSSVTYMHWYQQKSGTSPKTWIYDSSRLASGVPARFSGSGSGTSYSLTISSMEAEDAATYYCQHWSSNPPIFTFGSGTKLEIK
For the molecule B1, the binding result is reported as “binds” in assay [1], “binds” in assay [2] and “no binding” in assay [3].

B2: monoclonal antibody 8E11 (antibody, V domains shown)
VH: EVMLVESGGGLVKPGGSLKISCAASGFTFSWYAMSWVRQTPEKRLEWVATISSAGSYTYYPDSVKGRFTISRDNAKNTLYLQMSSLRSEDTAMYYCSRVPILGRVDYWGQGTTLTVSS
VL: QIVLTQSPAFMSASPGEKVTMTCSASSSVTYMNWYQQKSGTSPKTWIYDSSRLASGVPPRFSGSGSGTSYSLTISSMEAEDAATYYCQQWSSNPPIFTFGSGTKLEIK
For B2, the binding result was “binds” in assay [1] and “no binding” in assay [3].
